These results are taken from US20120058906A1 (published 2012).

Experiment [1] addresses T1, rHuman Erythropoietin R/Fc Chimera, CF (R&D Systems Cat#963-ER) (human, UniProt P19235 25-250).
T1 construct: Bought Fc chimera; also called EPO R/Fc; Epo R; Fc part of the bought chimera not given
T1 sequence: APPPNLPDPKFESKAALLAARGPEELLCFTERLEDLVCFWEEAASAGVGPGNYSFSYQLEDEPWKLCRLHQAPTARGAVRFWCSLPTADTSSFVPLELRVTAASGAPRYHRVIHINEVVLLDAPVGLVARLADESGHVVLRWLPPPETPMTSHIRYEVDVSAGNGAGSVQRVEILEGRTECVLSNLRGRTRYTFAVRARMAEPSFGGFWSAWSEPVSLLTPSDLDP
Nature of the experiment: ECL (MSD Multi-Spot) binding assay, antigen spotted on plate; Fab 15 nM; blank spot 261.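 Further: blank spot per well as comparator with Hit at signal to blank ratio of 4 or more.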

Experiment [2] deals with T2, Recombinant Human DLL4 (R&D Systems Cat#1506-D4/CF) (human, UniProt Q9NR61 27-524).
T2 construct: Bought recombinant protein; also called delta-like protein 4; rHuman DLL4
Described as above.

Experiment [3] addresses T3, rHuman Notch-1/Fc Chimera, CF (R&D Systems Cat#3647-TK) (human, UniProt P46531 19-526).
T3 construct: Bought Fc chimera; Fc part of the bought chimera not given
The experiment is described as above.

The target in experiment [4] is T4, rHuman CD44/Fc Chimera, CF (R&D Systems Cat#3660-CD) (human, UniProt P16070 21-220).
T4 construct: Bought Fc chimera; Fc part of the bought chimera not given
The description is as above.

Experiment [5] has as its target T5, rHuman P-Cadherin/Fc Chimera, CF (R&D Systems Cat#861-PC) (human, UniProt P22223 108-654).
T5 construct: Bought Fc chimera; also called CDH3; Fc part of the bought chimera not given
The description is as above.

In experiment [6] the target is T6, rHuman ErbB2/Fc Chimera, CF (R&D Systems Cat#1129-ER) (human, UniProt P04626 23-652).
T6 construct: Bought reagent; also called HER2/neu; human epidermal growth factor 2 receptor; Fc part of the bought chimera not given
Nature of the experiment: ECL (MSD multi-spot), antigen spotted on plate; Fab 44.1 nM; blank spot 200.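 Further: blank spot per well as comparator with Hit at signal to blank ratio of 4 or more.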

In experiment [7] the target is T7, rHuman P-Cadherin/Fc Chimera, CF (R&D Systems Cat#861-PC) (human, UniProt P22223 108-654).
T7 construct: Bought reagent; also called CDH3; Fc part of the bought chimera not given
The description is as above.

The target of experiment [8] is T8, rHuman ErbB2/Fc Chimera, CF (R&D Systems Cat#1129-ER) (human, UniProt P04626 23-652).
T8 construct: Bought Fc chimera; also called HER2/neu; not shown: Fc of the bought chimera
Nature of the experiment: ECL (MSD multi-spot), antigen on plate, Fab 5 nM.

Experiment [9] has as its target T9, rHuman EGF R/Fc Chimera, CF (R&D Systems Cat#344-ER) (human, UniProt P00533 25-645).
T9 construct: Bought Fc chimera; also called ErbB-1; not shown: Fc of the bought chimera
Nature of the experiment: ECL (MSD multi-spot), antigen on plate, Fab 5 nM.

The target in experiment [10] is T10, rHuman HGF R/c-MET/Fc Chimera, CF (R&D Systems Cat#358-MT/CF) (human, UniProt P08581 25-932).
T10 construct: Bought Fc chimera; also called HGF R/Fc; not shown: Fc of the bought chimera
The experiment in a line: ECL (MSD multi-spot), antigen on plate, Fab 5 nM.

The target in experiment [11] is T11, rHuman IGF-1 sR (insulin-like growth factor-1 soluble receptor), CF (R&D Systems Cat#391-GR) (human, UniProt P08069 31-932).
T11 construct: Bought soluble receptor; also called IGF-R1
Nature of the experiment: ECL (MSD multi-spot), antigen on plate, Fab 0.4 nM.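 Further: blank spot per well as comparator with Hit at signal to blank ratio of 4 or more.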

The target in experiment [12] is T12, rHuman P-Cadherin/Fc Chimera, CF (R&D Systems Cat#861-PC) (human, UniProt P22223 108-654).
T12 construct: Bought Fc chimera; also called CDH3; not shown: Fc of the bought chimera
Nature of the experiment: ECL (MSD multi-spot), antigen on plate, Fab 0.4 nM.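 Further: blank spot per well as comparator with Hit at signal to blank ratio of 4 or more.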

The target in experiment [13] is T13, rHuman Erythropoietin R/Fc Chimera, CF (R&D Systems Cat#963-ER) (human, UniProt P19235 25-250).
T13 construct: Bought Fc chimera; also called EPO R/Fc; Epo R; not shown: Fc of the bought chimera
T13 sequence: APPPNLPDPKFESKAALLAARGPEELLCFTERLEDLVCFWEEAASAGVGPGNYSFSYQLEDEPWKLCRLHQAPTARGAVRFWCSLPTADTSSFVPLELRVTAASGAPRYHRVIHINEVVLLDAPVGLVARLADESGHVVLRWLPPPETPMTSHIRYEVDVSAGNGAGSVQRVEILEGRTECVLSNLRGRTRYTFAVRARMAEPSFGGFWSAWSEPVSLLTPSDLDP
The experiment in a line: ECL (MSD multi-spot), antigen on plate, Fab 0.4 nM.

The target of experiment [14] is T14, Recombinant Human DLL4 (R&D Systems Cat#1506-D4/CF) (human, UniProt Q9NR61 27-524).
T14 construct: Bought recombinant protein; also called delta-like protein 4
The experiment in a line: ECL (MSD multi-spot), antigen on plate, Fab 0.4 nM.

In experiment [15] the target is T8, rHuman ErbB2/Fc Chimera, CF (R&D …). Nature of the experiment: ECL (MSD multi-spot), antigen on plate, Fab 0.4 nM.
Experiment [16] deals with T9, rHuman EGF R/Fc Chimera, CF (R&D …). The experiment in a line: ECL (MSD multi-spot), antigen on plate, Fab 0.4 nM.
Experiment [17] addresses T10, rHuman HGF R/c-MET/Fc Chimera, CF (R&D …). The experiment in a line: ECL (MSD multi-spot), antigen on plate, Fab 0.4 nM.
Experiment [18] deals with T15, rHuman Notch-1/Fc Chimera, CF (R&D Systems Cat#3647-TK) (human, UniProt P46531 19-526).
T15 construct: Bought Fc chimera; not shown: Fc of the bought chimera
Nature of the experiment: ECL (MSD multi-spot), antigen on plate, Fab 0.4 nM.

Experiment [19] deals with T16, rHuman CD44/Fc Chimera, CF (R&D Systems Cat#3660-CD) (human, UniProt P16070 21-220).
T16 construct: Bought Fc chimera; not shown: Fc of the bought chimera
Nature of the experiment: ECL (MSD multi-spot), antigen on plate, Fab 0.4 nM.

B1: Fab VH6-1_IGHD3-3*01_IGHJ4*01 & V4-3_IGLJ4*01 (Fab, V domains shown)
VH: QVQLQQSGPGLVKPSQTLSLTCAISGDSVSSNSAAWNWIRQSPSRGLEWLGRTYYRSKWYNDYAVSVKSRITINPDTSKNQFSLQLNSVTPEDTAVYYCAREYYDFWSGYYTDYFDYWGQGTLVTVSS
VL: QPVLTQPTSLSASPGASARLTCTLRSGINLGSYRIFWYQQKPESPPRYLLSYYSDSSKHQGSGVPSRFSGSKDASSNAGILVISGLQSEDEADYYCMIWHSSASFVFGGGTQLIIL
notes: Tested as a Fab made in E. coli; also called IGHV6-1*01
For the molecule B1, the ECL signal in [1] worked out at 397; in [2] it was 690; in [3], 508; in experiment [4] it was 454; in experiment [5], 351.

B2: Fab VH1-46_IGHD3-10*01_IGHJ4*01 & B3_IGKJ1*01 (Fab, V domains shown)
VH: QVQLVQSGAEVKKPGASVKVSCKASGYTFTSYYMHWVRQAPGQGLEWMGIINPSGGSTSYAQKFQGRVTMTRDTSTSTVYMELSSLRSEDTAVYYCAREYYYGSGSYYNDYFDYWGQGTLVTVSS
VL: not shown
notes: also called IGHV1-46*01
On to B2, for which the ECL signal in experiment [6] is 347; in [7], 343.

B3: Fab VH1-46_IGHD6-6*01_IGHJ1*01_S102A_S103P_S104Y_H111Y & L6_IGKJ1*01 (Fab, V domains shown)
VH: QVQLVQSGAEVKKPGASVKVSCKASGYTFTSYYMHWVRQAPGQGLEWMGIINPSGGSTSYAQKFQGRVTMTRDTSTSTVYMELSSLRSEDTAVYYCAREEYAPYSAEYFQYWGQGTLVTVSS
VL: not shown
notes: Fab made in E. coli; The heavy chain also carries CH1 with Flag and His tags from Plasmid A, and the light chain carries kappa CL from Plasmid C
For the molecule B3, the results for the ECL signal in experiment [8], in [9] and in [10] were 2860 ECL signal, 2980 ECL signal and 3100 ECL signal, respectively.

B4: Fab VH1-46_IGHD6-6*01_IGHJ1*01_S102A_S103P_S104F & L6_IGKJ1*01_S30N (Fab, V domains shown)
VH: QVQLVQSGAEVKKPGASVKVSCKASGYTFTSYYMHWVRQAPGQGLEWMGIINPSGGSTSYAQKFQGRVTMTRDTSTSTVYMELSSLRSEDTAVYYCAREEYAPFSAEYFQHWGQGTLVTVSS
VL: EIVLTQSPATLSLSPGERATLSCRASQSVNSYLAWYQQKPGQAPRLLIYDASNRATGIPARFSGSGSGTDFTLTISSLEPEDFAVYYCQQRSNWPPWTFGQGTKVEIKR
notes: Fab
B4: the ECL signal in experiment [11] turned out to be 141 ECL signal; in experiment [12], 111 ECL signal; in experiment [13], 224 ECL signal; in experiment [14], 1040 ECL signal; in [15], 203 ECL signal; in experiment [16], 173 ECL signal. Further, the ECL signal in [17] was 120 ECL signal; in [18] it was 197 ECL signal; in experiment [19], 176 ECL signal.
